# Laboratory results reported in the RNAGym collection of RNA variant scans (doi:10.1073/pnas.2313332121).
# Fewer inactive variants are shown than the library holds.
# B1: TPR 5TU (parent)
# chain: GGAUCUUCUCGAUCUAACAAAAAAGACAAAUCUGCCACAAAGCUUGAGAGCAUCUUCGGAUGCAGAGGCGGCAGCCUUCGGUGGCGCGAUAGCGCCAACGUUCUCAACUAUGACACGCAAAACGCGUGCUCCGUUGAAUGGAGUUUAUCAUG
# Variants of: B1
# Experiment: polymerase ribozyme fitness, log enrichment relative to wild type (log ratio); higher = more active; in vitro selection for triplet polymerase activity
# Procedure, shortened: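 For each subunit of a heterodimeric triplet polymerase ribozyme, a mutant library was built by PCR and transcribed, then taken through a single in vitro selection round in triplicate. Selection involved annealing to a biotinylated primer, the partner subunit and triplets, incubation frozen at −7 °C, gel excision of extended constructs, capture on streptavidin beads and RT-PCR. Genotypes were retained after Illumina sequencing of inputs and outputs only with ≥10 input reads and ≥1 read in each output. Fitness is defined as the logarithm of a genotype's enrichment relative to wild-type enrichment, using inverse-variance-weighted averages across replicates, with the logarithm taken to base 2.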
row,Variant,polymerase ribozyme fitness (log ratio)
1,G50A G68C U77C U82G G92C,≤ -4.2
2,G50C A52C G86U C87A,≤ -4.2
3,G50C G68A A142U,≤ -4.2
4,G50A C51U G74C U82C G140A U146G,≤ -4.2
5,G50U C57U G84U C103U,-2.21
6,G50A A89U C99U,-2.94
7,G50U G84A A91U C116A,≤ -4.2
8,G50A A52C A97G G100A C114G G133U,≤ -4.2
9,G50U G65C A66C C96G,≤ -4.2
10,G50A A60C G86A,-3.81
11,G50U U102A A142U,-2.57
12,G50C G94A A107G U134C,≤ -4.2
13,G50C C76U C85U C116G,-2.09
14,G50A C103U,-1.49
15,G50C C95U,-3.47
16,G50A C57A C76G C93G,≤ -4.2
17,G50C C75U C93G A115G,≤ -4.2
18,G50U U55G C75A A97G A137U U151A,≤ -4.2
19,G50A C57U G74U C75G C87A A97C A150G,≤ -4.2
20,C51A C96A,-1.26
21,G50A C96U,-1.47
22,G50A C96G,-1.55
23,G50A C96A,-2.68
24,G50A G143C,-3.85

row,Variant,polymerase ribozyme fitness (log ratio)
1,C51A C57U G59U G100C A119U A122U U145G,-4.13
2,G50C A64U C93G U111G C116U G143U,≤ -4.2
3,G50A C76A G92A U101G G128U U130G,≤ -4.2
4,G50C U56A A73G C125A,-4.1
5,G50C G71U C85A G124U,≤ -4.2
6,G50C G58U,-1.88
7,G50C G58A C125A,-3.17
8,G50C C93A,≤ -4.2
9,G50C C93U,-4.15
10,G50A C93G G124A C125U G133A U135G A150G,≤ -4.2
11,G50A C95U,-2.44
12,G50A C95G,-3.01
13,C51A C54U A91U G100U G124A U135C,≤ -4.2
14,G50A U134A,-3.21
15,G50C U53A C57G A73G C93A C95A U101G A107G A138C U144C,≤ -4.2
16,G50U C93U,-2.05
17,G50A G141C,-1.77
18,G50U A60U,-0.536
19,G50A A66G,-3.75
20,G50A C95U C116U,-1.99
21,G50C A119U,-3.92
22,G50U C87U A89G,-3.95
23,G50U C95G,-0.905
24,G50A C54U C85U C93U G94U G117A,-3.95

row,Variant,polymerase ribozyme fitness (log ratio)
1,G50A U53A U56A C75U C116A U134G,≤ -4.2
2,G50A U77A A106U A113G A121U C131U,≤ -4.2
3,G50U G58U G59U C76A,≤ -4.2
4,G50C C63U U82C A115U U146A,-1.83
5,C51A C87A G133U C149G,≤ -4.2
6,G50A U77G G81A A91U A97G A122U,≤ -4.2
7,G50C C87U A150C U151A,≤ -4.2
8,G50A G71C U82G C85G,≤ -4.2
9,G50A C87U,-1.74
10,G50A G94C C95G U144C,≤ -4.2
11,G50C A73G G84A,-4.1
12,G50U C87U G92A,0.244
13,C51A A60G C95G U146C U151G,≤ -4.2
14,G50C C54U G86A C108U,≤ -4.2
15,G50A U82C,-0.783
16,G50A A52U U78C C116A C149G,≤ -4.2
17,G50A U78A G83A G100A A107C,≤ -4.2
18,G50C C69A C75U,≤ -4.2
19,G50A G68A C96G C99U G136A,≤ -4.2
20,C51A A52U C63U C99G A106C A119G G126U,≤ -4.2
21,C51A C95U C118U U135A,-2.41
22,G50A C54U A91U C93U A107C C108A C132G A138U U148G,≤ -4.2
23,C51A C57A C87U A98G U146G,-3.12
24,C51A C75U,-2.27

row,Variant,polymerase ribozyme fitness (log ratio)
1,G50C C93G C99U,≤ -4.2
2,G50U A97U A147U,0.621
3,G50A U56A,-1.5
4,G50A U56C,-1.2
5,G50A C57A C85A A91C A98C A121U G128U U135G A142U G143A,≤ -4.2
6,G50A U53C U56A A91U G94C A142C,≤ -4.2
7,G50C G59C C95G,-3.67
8,G50C C87U C103G A121G C123U C125G,≤ -4.2
9,G50A A52C G84U A122U G141U,-3.68
10,G50C A52C C105A C125A A142C U146A,≤ -4.2
11,A49U U61A A138C G140C,≤ -4.2
12,G50U G94A A113G A147C,-3.89
13,C51A A73U C99U C103A U104A G126C U139A,≤ -4.2
14,G50A A110G,-3.88
15,G50C C87U C123A C125G,-3.47
16,G50C G117A,-2.37
17,G50C C75U C85G,≤ -4.2
18,G50A A142C,-3.12
19,G50A C125U,-1.35
20,G50A U53A U55A U56A G67C G92A G126U,≤ -4.2
21,G50U U139C,-3.65
22,G50A A91U C99U C103G C108U A137C G141C,≤ -4.2
23,G50C U77G C93G,≤ -4.2
24,G50C U55G C63A C76G A91G C125G U145C,≤ -4.2

row,Variant,polymerase ribozyme fitness (log ratio)
1,G50C C57U G59C C99G,≤ -4.2
2,G50A G59A U101G,-0.0298
3,G50A U53A A91U G124A C131G A137C,≤ -4.2
4,G50C U130C,-1.3
5,G50A G59C U90G,≤ -4.2
6,G50A G83C C93G A97C C132G A137G G140U,≤ -4.2
7,G50A A64C C95G C114U,≤ -4.2
8,G50C,-2.52
9,G50U,0.257
10,G50A,-1.02
11,G50A A91U,≤ -4.2
12,G50U C79G A98U C99G,≤ -4.2
13,G50A G83A A97G,-0.838
14,C51A C85A G141A,-1.93
15,G50C U104C C116A G143U,≤ -4.2
16,G50C G92A C116U U151C,≤ -4.2
17,G50A C57A C99A,-2.67
18,G50A A150U,-1.41
19,C51A A52C A73G G83U U127C,≤ -4.2
20,G50A C57A A66C G81U G86C A97C,≤ -4.2
21,G50U A52G,-0.0259
22,G50C G94A C116U,-3.3
23,G50U U55A C96U,-0.864
24,G50U G86C A120C,-3.03

row,Variant,polymerase ribozyme fitness (log ratio)
1,G50A G58C C99A,≤ -4.2
2,G50C C125U,-3.89
3,G50C C125A,-2.76
4,G50U C63U C85A A110G,-4.19
5,G50U C51U C72U C93G U101C C108A G112U A113U A121G,≤ -4.2
6,G50U C95U C118A G140A,≤ -4.2
7,G50A A107U,-4.13
8,G50C A52C G58C,≤ -4.2
9,G50A G58C,-1.06
10,G50A U90C C96G A115U,≤ -4.2
11,G50U G94A,-0.00242
12,C51A C57U U146G,-1.67
13,G50U A52C A64C G92C,≤ -4.2
14,G50U C96U C99A C103G G124C C129A U144G,≤ -4.2
15,G50A G94U C116G,-1.85
16,G50U U55A A66G C95U C103A A138U,≤ -4.2
17,G50C A52C U55A G86A,-3.95
18,G50A U56G C85U A115C U144G,-2.74
19,G50A G86A C131U,-1.93
20,G50A C69U A121U A137C,≤ -4.2
21,G50A C54U C57A G84U C103G G124C G133U G141C,≤ -4.2
22,G50C C95U U146G,-3.64
23,G50A G59U G71U A73C C95A C108G,≤ -4.2
24,G50C U134C,-2.51

row,Variant,polymerase ribozyme fitness (log ratio)
1,G50A C95U C125U,-2.44
2,G50C C93U U104G G136U G141A,≤ -4.2
3,G50C U104G,≤ -4.2
4,G50C A64C G80A A120C G128U,≤ -4.2
5,G50A C85G,-3.34
6,G50U C87U G136U,-2.29
7,G50U U53G C69G G94A,≤ -4.2
8,A49U U56G G81A G94A U146G,≤ -4.2
9,G50C C118A,-4.05
10,G50C C118U,-3.01
11,G50A C93U,-3.07
12,G50C C57G C95A A115C,≤ -4.2
13,G50U U104G G143U,-3.47
14,G50C C129U,-3.94
15,G50A G59A C96U A122U A142G A147U,-3.67
16,G50U C96G,-0.544
17,A49U U101C C116U,-1.49
18,G50C G84A U104C A106C,≤ -4.2
19,G50U U146C,0.0837
20,G50U U145C,-0.536
21,G50U C57U A73U G86U G126U,≤ -4.2
22,G50C C63G C96A C118U A119C,-0.626
23,G50A C85U C96U C105U G141A,-1.94
